Data on two molecules can be found in PMC2944808, “Binding between Crossveinless-2 and Chordin Von Willebrand Factor Type C Domains Promotes BMP Signaling by Blocking Chordin Activity” (PLoS ONE, 2010).

Common to all, as to details: both partners purified
For one test, the target named is T1, BMP2, human (human, UniProt P12643 283-396).
T1 construct: Bone morphogenetic protein 2 (BMP2), human; The discussion speaks of 'the BMP dimer'; also called Bone morphogenetic protein 2; source: E. coli, purified as described [40]
As to the kind of experiment: SPR; BIAcore 2000; BMP2 immobilised, CV2 proteins perfused; apparent KD from koff/kon; 6 to 9 analyte concentrations, at least three independent experiments. For orientation: In SPR one partner is held on a chip, and binding of the other changes the refractive index at the surface.

Test [1] addresses T2, Chordin, full-length, mouse (mouse, UniProt Q9Z0E2 27-948).
T2 construct: Chordin, mouse, full-length; source: SF9 cells, purified as described [12]
T2 sequence (looked up): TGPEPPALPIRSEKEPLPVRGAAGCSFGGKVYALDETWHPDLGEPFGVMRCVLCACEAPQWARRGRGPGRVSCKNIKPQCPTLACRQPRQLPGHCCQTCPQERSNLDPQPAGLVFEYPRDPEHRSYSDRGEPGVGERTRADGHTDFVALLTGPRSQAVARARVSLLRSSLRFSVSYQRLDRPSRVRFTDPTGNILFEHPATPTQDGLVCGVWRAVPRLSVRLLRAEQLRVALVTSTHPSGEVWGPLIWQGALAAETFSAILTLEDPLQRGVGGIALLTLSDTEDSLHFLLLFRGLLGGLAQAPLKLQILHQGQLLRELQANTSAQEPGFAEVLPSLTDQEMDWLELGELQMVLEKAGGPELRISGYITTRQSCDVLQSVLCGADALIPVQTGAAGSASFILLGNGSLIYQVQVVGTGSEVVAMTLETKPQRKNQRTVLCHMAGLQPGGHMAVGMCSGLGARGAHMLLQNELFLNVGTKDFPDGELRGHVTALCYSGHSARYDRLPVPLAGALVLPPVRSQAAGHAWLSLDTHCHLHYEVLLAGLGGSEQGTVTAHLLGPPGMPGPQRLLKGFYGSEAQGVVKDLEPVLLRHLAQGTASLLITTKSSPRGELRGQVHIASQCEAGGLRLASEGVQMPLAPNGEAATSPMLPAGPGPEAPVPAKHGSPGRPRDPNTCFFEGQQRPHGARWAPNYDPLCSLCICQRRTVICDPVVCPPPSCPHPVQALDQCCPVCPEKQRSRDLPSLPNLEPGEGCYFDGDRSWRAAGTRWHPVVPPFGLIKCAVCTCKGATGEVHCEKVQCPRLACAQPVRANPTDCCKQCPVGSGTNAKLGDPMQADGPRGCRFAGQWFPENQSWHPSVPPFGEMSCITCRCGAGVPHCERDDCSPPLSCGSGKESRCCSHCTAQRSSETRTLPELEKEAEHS
As to the kind of experiment: SPR; BIAcore 2000; Chordin immobilised, CV2 proteins perfused; apparent KD from koff/kon; 6 to 9 analyte concentrations, at least three independent experiments.

Test [2] deals with T3, VWC2 domain of Chordin, mouse (mouse).
T3 construct: Chordin, mouse, von Willebrand factor type C domain 2 (VWC2); also called Chordin VWC2; VWC2 of Chordin; source: SF9 cells, purified as described [12]
As to the kind of experiment: SPR; BIAcore 2000; VWC2 domain of Chordin immobilised, CV2 proteins perfused; apparent KD from koff/kon; 6 to 9 analyte concentrations, at least three independent experiments.

T1 sequence (P12643 283-396): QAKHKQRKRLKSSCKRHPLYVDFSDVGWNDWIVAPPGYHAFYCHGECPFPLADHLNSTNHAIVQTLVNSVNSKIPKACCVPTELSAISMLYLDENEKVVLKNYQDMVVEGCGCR

B1: CV2-VWC1-4 (domain or fragment)
chain: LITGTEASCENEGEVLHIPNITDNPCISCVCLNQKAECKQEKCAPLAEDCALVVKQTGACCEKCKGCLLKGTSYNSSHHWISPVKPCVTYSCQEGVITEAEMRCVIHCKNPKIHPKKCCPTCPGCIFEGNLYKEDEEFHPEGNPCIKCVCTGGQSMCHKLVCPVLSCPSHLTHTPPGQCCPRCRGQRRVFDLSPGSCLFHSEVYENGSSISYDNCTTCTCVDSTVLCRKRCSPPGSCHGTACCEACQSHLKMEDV
As for B1, the Kd is 21 nM in the test with BMP2, human; 180 nM in test [1]; 145 nM in test [2].

B2: CV2 ΔClip (domain or fragment)
chain: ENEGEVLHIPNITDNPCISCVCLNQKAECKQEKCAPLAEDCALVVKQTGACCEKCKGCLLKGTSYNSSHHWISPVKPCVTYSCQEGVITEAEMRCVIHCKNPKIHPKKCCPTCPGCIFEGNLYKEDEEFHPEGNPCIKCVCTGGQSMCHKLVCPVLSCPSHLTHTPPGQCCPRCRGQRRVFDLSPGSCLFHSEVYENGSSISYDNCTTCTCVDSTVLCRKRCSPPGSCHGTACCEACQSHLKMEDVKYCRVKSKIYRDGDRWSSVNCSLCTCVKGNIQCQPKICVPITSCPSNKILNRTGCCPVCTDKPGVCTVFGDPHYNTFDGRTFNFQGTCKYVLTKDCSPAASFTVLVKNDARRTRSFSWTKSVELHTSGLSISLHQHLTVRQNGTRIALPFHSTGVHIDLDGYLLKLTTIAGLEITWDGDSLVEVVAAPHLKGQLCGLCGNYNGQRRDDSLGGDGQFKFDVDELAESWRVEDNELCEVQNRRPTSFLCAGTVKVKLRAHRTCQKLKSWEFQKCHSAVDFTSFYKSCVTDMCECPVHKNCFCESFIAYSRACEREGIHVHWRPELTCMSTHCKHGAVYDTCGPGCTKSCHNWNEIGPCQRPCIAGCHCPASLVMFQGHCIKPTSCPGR
For the molecule B2, the Kd with BMP2, human was determined as 50000 nM; in test [1], 178 nM; in test [2], 180 nM.
